Reference: IntAct's records for PubMed 27820671

B1: LIM/homeobox protein Lhx4 (Homo sapiens), Q969G2 (parent)
chain: MMQSATVPAEGAVKGLPEMLGVPMQQIPQCAGCNQHILDKFILKVLDRHWHSSCLKCADCQMQLADRCFSRAGSVYCKEDFFKRFGTKCTACQQGIPPTQVVRKAQDFVYHLHCFACIICNRQLATGDEFYLMEDGRLVCKEDYETAKQNDDSEAGAKRPRTTITAKQLETLKNAYKNSPKPARHVREQLSSETGLDMRVVQVWFQNRRAKEKRLKKDAGRHRWGQFYKSVKRSRGSSKQEKESSAEDCGVSDSELSFREDQILSELGHTNRIYGNVGDVTGGQLMNGSFSMDGTGQSYQDLRDGSPYGIPQSPSSISSLPSHAPLLNGLDYTVDSNLGIIAHAGQGVSQTLRAMAGGPTSDISTGSSVGYPDFPTSPGSWLDEMDHPPF
partner: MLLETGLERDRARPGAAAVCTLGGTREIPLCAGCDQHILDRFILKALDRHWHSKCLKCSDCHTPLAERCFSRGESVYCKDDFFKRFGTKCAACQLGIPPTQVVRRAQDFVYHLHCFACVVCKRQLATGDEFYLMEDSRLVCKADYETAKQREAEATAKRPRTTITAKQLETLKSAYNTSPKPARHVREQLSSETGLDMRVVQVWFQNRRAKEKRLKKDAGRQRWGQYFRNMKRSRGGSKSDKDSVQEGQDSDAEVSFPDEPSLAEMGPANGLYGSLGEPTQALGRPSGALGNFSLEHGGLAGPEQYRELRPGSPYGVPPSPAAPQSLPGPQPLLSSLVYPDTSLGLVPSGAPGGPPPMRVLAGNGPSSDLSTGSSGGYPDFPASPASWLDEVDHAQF
B2: LIM/homeobox protein Lhx4 (Homo sapiens), Q969G2 (parent)
chain: B1 chain
partner: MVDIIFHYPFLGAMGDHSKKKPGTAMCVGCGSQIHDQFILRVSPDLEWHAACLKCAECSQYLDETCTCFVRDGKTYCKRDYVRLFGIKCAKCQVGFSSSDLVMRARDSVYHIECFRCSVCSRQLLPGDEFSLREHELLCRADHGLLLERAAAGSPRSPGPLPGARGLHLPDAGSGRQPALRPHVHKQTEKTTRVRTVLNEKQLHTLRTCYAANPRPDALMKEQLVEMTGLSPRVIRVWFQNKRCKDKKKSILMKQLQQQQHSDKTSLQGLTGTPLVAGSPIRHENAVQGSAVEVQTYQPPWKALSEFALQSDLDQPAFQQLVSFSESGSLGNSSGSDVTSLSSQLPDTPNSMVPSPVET

Variants of: B1
Conditions: with lhx3_human LHX3, Q9UBR4

Variant | effect of a mutation on the interaction
C57A;C60A | decreasing interaction strength
A65V | with no effect

Variants of: B2
Conditions: with isl2_human ISL2, Q96A47

Variant | effect of a mutation on the interaction
A65V | with no effect
C57A;C60A | decreasing interaction strength
